According to patent publication US20020102706A1 (published 2002):

Biological target: T1, Apo-2 ligand (soluble Apo-2L, Pitti et al.) (UniProt P50591 114-281)
T1 construct: also called TRAIL; 125I-Apo-2L
Assay: 125I-Apo-2L binding to Apo-2DcR-transfected 293 cells; nonspecific binding with 0.5 ug/ml unlabeled Apo-2L

T1 sequence (P50591 114-281 limits assumed): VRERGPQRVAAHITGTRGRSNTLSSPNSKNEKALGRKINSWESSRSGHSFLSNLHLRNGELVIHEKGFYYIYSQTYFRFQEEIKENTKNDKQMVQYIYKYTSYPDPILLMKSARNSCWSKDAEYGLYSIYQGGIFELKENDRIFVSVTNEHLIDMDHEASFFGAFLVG

binding result: binds
B1: full-length native sequence human Apo-2DcR (receptor)
chain: ATTARQEEVPQQTVAPQQQRHSFKGEECPAGSHRSEHTGACNPCTEGVDYTNASNNEPSCFPCTVCKSDQKHKSSCTMTRDTVCQCKEGTFRNENSPEMCRKCSRCPSGEVQVSNCTSWDDIQCVEEFGANATVETPAAEETMNTSPGTPAPAAEETMNTSPGTPAPAAEETMTTSPGTPAPAAEETMTTSPGTPAPAAEETMTTSPGTPA
notes: also called Apo-2DcR receptor; pRK5-hApo-2DcR product
